According to patent US8709741B2, “Methods of diagnosing a plasmodium infection” (priority 2009, dated 2014):
Like-named read-outs stand apart in the source and are kept apart here.

Tests used:
[1] = tested on: P. falciparum FcB1/Colombian strain; assay: Anti-Plasmodium activity assay (dose-response, 3H-hypoxanthine incorporation), culture with human serum; format: cell-based
Protocol: (§1) The chloroquine-resistant P. falciparum FcB1/Colombian strain was used. Under the following culture conditions, the in vitro life cycle of the FcB1 strain was 48 hours. Cultures were grown in complete medium consisting of RPMI 1640 (Life Technologies, Inc.) supplemented with 11 mM glucose, 27.5 mM NaHCO3, 100 UI/mL penicillin, 100 μg/mL streptomycin, adjusted to pH 7.4 before addition of heat-inactivated human serum (A+ blood group, 8% final) or Albumax II® (0.5% final), according to the procedure of Trager and Jensen (1976). Parasites were routinely grown at 37° C. in human A+ RBCs (Red blood cells) at a 2% haematocrit and 2-6% parasitemia, in a 3% CO2, 6% O2 and 91% N2 atmosphere. Semi-synchronized cultures were established by Sorbitol (Lambros) treatment. Highly synchronized cultures (4 hour-window synchronization) were obtained by successive Plamion (Pasvol) and Sorbitol treatments. Parasitaemia and stage distribution were determined by optical examination of Diff-Quick stained culture smears. Parasitaemia (expressed in percent) is hundred times the number of parasitized erythrocytes divided by the total number of erythrocytes.
(§2) Dried preparations of the purified recombinant human sPLA2s were re-suspended at high concentration (usually 50 μM) in RPMI 0.05% BSA, and then tested individually for their capacity to inhibit the in vitro intra-erythrocytic development of P. falciparum. Dose-response assays based on ^3H-hypoxanthine incorporation by growing parasites were performed as in Guillaume et al. (2004). Radioactivity was measured with a 1450 Microbeta counter (Wallac, Perkin Elmer). Percentage of growth inhibition was calculated from the parasite-associated radioactivity compared with control without sPLA2. Values for the IC50 were determined from dose-response curves.

P. falciparum = assay: Anti-Plasmodium activity assay in Albumax II (serum substitute); format: cell-based; conditions: Albumax II
Protocol: as §1, with “Highly synchronized cultures (4 hour-window synchronization) were obtained by successive Plamion (Pasvol) and Sorbitol treatments.” left out, “Parasitaemia (expressed in percent) is hundred times the number of parasitized erythrocytes divided by the total number of erythrocytes.” left out
as §2, with “Dose-response assays based on ^3H-hypoxanthine incorporation by growing parasites were performed as in Guillaume et al. (2004).” left out, “curves. […]” for “curves.”

[2] = Specific activities of sPLA2s on human plasma (NEFA release, NEFA-C kit); format: biochemical
Protocol: Kinetic analysis of human plasma hydrolysis by sPLA2s was performed by mixing on ice 50 μL of crude plasma with recombinant sPLA2s at various final concentrations (respectively 2×, 5× and 10× the IC50 value). At time zero, the mixture was transferred to 37° C. Samples (7 μL) were taken after 5, 15, 30 and 60 minutes of incubation and quickly frozen at −20° C. An aliquot of plasma without enzyme was similarly processed. Concentration of non-esterified fatty acids (NEFAs) in each sample was measured by a discontinuous enzymatic method using the NEFA-C test kit from WAKO, following manufacturer's instructions. The amount of NEFAs in each enzyme-containing plasma sample was subtracted for NEFAs in enzyme-free plasma sample. Specific activity for each of the sPLA2s was determined from the linear part of the curve [NEFA]=f(t). Experiment was repeated three times with plasmas from different donors and different batches of sPLA2s.
Specific activities of sPLA2s on human plasma. Hydrolysis of plasma phospholipids by human and venom sPLA2s was assayed using different incubation times and enzymes concentrations. Hydrolysis was assessed by measuring the amount of NEFAs in samples using the colorimetric assay developed by WAKO (NEFA-C kit). Enzymatic production of NEFAs was corrected for endogenous production of NEFAs measured in the absence of sPLA2. Specific activity for each of the sPLA2s was determined from the linear part of the kinetic curve. Values are the mean of three independent experiments. SD: standard deviation. Anti-P. falciparum activities (IC50) of the respective sPLA2s are given for comparison.

[3] = tested on: P. falciparum blood stages; assay: Sensitivity of the P. falciparum blood stages to GX sPLA2 (15 h treatment, re-invasion); format: cell-based; conditions: 100 nM
Protocol: A parasite culture was synchronised on a 4 h window. Parasites aged 0-4 h post-invasion (p.i.) (rings, R), 18-22 h p.i. (trophozoites, T), and 34-38 h p.i. (schizonts, S) were incubated for 15 h in culture conditions with (▪) or without (□) 100 nM recombinant GX sPLA2. Afterwards cells were washed and let grow in normal culture conditions until re-invasion. GX sPLA2 inhibitory activity on the complete parasite cycle was assessed by incubating 0-4 h p.i. parasites for 48 h with GX sPLA2 (cycle). Parasitaemia in each sample was determined from Diff Quick-stained smears. For each stage, 100% parasitaemia was established from parasite growth in the absence of enzyme;
A parasite culture was synchronised on a 4 h-window. Parasites aged 0-4 h post-invasion (rings), 18-22 h post-invasion (trophozoites), and 34-38 h post-invasion (schizonts) were adjusted to 1% parasitaemia and 2% haematocrit in complete medium, and were then incubated in a 96-well plate in a candle jar at 37° C., with or without 100 nM of recombinant GX sPLA2. After 15 hours, cells were centrifuged at 900×g for 2 min, washed in RPMI and re-suspended at a 2% haematocrit in fresh complete medium for further growth. When re-invasion had occurred (P. falciparum invades new RBCs when its 48 hour-development cycle is completed), parasitaemia (%) in each well was determined from Diff Quick-stained smears. GX sPLA2 inhibitory activity on the complete parasite cycle was assessed by incubating rings with the recombinant enzyme for 48 hours.

[4] = 48 h-hydrolysis of plasma by sPLA2s at IC50 concentrations (NEFA); format: biochemical, human; conditions: GX 3 nM, GIIF full length or truncated 15 nM, bee venom 15 pM; 37° C.
Protocol: Crude human plasma was incubated with 3 nM of recombinant human GX sPLA2 (⋄), 15 nM of the full length (▪) or truncated (□) recombinant human GIIF sPLA2, and 15 pM of the bee venom sPLA2 (♦), for 48 h at 37° C. Aliquots were taken at times 0 h, 6 h, 22 h, 30 h and 48 h of incubation. NEFAs in each aliquot were measured using the NEFA-C kit (WAKO);
Crude human plasma was incubated with 3 nM of recombinant human GX sPLA2, 15 nM of the full length or the truncated form (IIFΔC) of recombinant human GIIF sPLA2, and 15 pM of the bee venom sPLA2, for 48 h at 37° C. Aliquots (7 μL) were taken at times 0 h, 6 h, 22 h, 30 h and 48 h of incubation. NEFAs were measured in each aliquot by using the NEFA-C kit (WAKO). Experiment was repeated twice with different plasmas.

B1: X: recombinant human group X secreted phospholipase A2 (protein, UniProt O15496 43-165, looked up)
Group 10 secretory …: GILELAGTVGCVGPRTPIAYMKYGCFCGLGGHGQPRDAIDWCCHGHDCCYTRAEEAGCSPKTERYSWQCVNQSVLCGPAENKCQELLCKCDQEIANCLAQTEYNLKYLFYPQFLCEPDSPKCD
- IC50 ([1]; Table II, read-out: IC50 (nM), anti-P. falciparum activity given for comparison): 2.9 ± 2.4 nM
- IC50 ([1]; culture in human red blood cells and serum, mean of independent dose-response assays, read-out: IC50 ± SD (anti-P. falciparum activity)): 2.9 ± 2.4 nM
- inhibition of P. falciparum development in vitro ([1]; standard P. falciparum cultures with serum): active against P. falciparum
- inhibition of Plasmodium growth in Albumax II (P. falciparum): does not efficiently inhibit Plasmodium growth
- activity on plasma relative to GIIF sPLA2 ([2]; ratio of specific activities): 9 times
- activity on plasma relative to GV sPLA2 ([2]; ratio of specific activities): 30 times
- Specific activity ± SD (μmol NEFA/min × mg enzyme) ([2]; whole human plasma, 37° C., linear part of kinetic curve, mean of three experiments): 8.23 ± 0.92 μmol NEFA/min × mg enzyme
- re-invasion after treatment of rings ([3]; rings 0-4 h post-invasion): 25%
- schizonts that completed the cycle after treatment ([3]; schizonts 34-38 h post-invasion): less than 10%
- trophozoites that completed the cycle after treatment ([3]; trophozoites 18-22 h post-invasion): less than 10%
- hydrolysis of plasma over 48 h [4]: the most active
